# Reference: the RNAGym collection of RNA variant scans (doi:10.7554/elife.80360)
# B1: CPEB3 Ribozyme (parent)
# chain: GGGGGCCACAGCAGAAGCGUUCACGUCGCGGCCCCUGUCAGAUUCUGGUGAAUCUGCGAAUUCUGCUGU
# Variants of: B1
# Experiment: self-cleavage, relative activity (ratio to wild type); higher = more cleavage; co-transcriptional
row,Variant,self-cleavage
1,G48A G50U,0.988
2,G48A G50A,0.985
3,G48A G50C,0.974
4,G47C U69C,1.06
5,C45U U62A,0.908
6,G48A C66U,0.99
7,G48A C66G,0.942
8,G48A C66A,0.877
9,G47A G50U,1.01
10,U46A C57G,0.31
11,U46A C57U,0.309
12,G48C A52C,0.994
13,G48C A52U,0.971
14,G48C A52G,1.04
15,G48A A59U,0.817
16,G48A A59C,0.83
17,G48A A59G,1.05
18,U46C G48U,1.02
19,U46C G48A,1.03
20,U46C G48C,1.02
21,G47A U61C,0.887
22,G47A U61G,0.968
23,G47C U61A,0.97
24,G47C U61G,0.937

row,Variant,self-cleavage
1,G47U G58A,0.946
2,G47U G58C,0.963
3,G47U G58U,0.994
4,G47C G56U,1.02
5,G47C G56C,0.92
6,U46A G50C,0.951
7,U46A G50A,0.974
8,U46C U67C,0.962
9,U46C U67G,0.977
10,U46C U67A,0.938
11,U46G U61G,0.878
12,U46G U61A,0.958
13,U46G U61C,0.941
14,U46A U61G,0.902
15,U46A U61C,0.86
16,U46G U64A,0.916
17,U46G U64C,0.927
18,U46G U64G,0.885
19,G47A A51G,1.02
20,G47A A51U,0.953
21,U46A A52C,1.01
22,G48C C63A,0.931
23,G48C C63U,0.981
24,U46C A60C,0.339

row,Variant,self-cleavage
1,U46C A60U,0.472
2,G47A C54G,0.979
3,G47A C54A,0.961
4,G47A U49G,0.994
5,G47U C54A,0.987
6,G47U C54U,1.05
7,U46A G56A,0.997
8,U46A U69A,0.991
9,U46A U69C,1.07
10,G47C C63U,1.01
11,U46C C54G,0.891
12,U46C C54A,0.772
13,G47U A52U,0.973
14,U46C U62A,0.943
15,U46C U62C,0.895
16,U46C U62G,0.916
17,U46C C66A,0.763
18,U46C C66G,0.762
19,U46C G56U,0.837
20,C45U U61C,0.887
21,C45U U61A,0.919
22,G48A U62G,0.868
23,G48A U62C,0.952
24,G48A G65A,0.992

row,Variant,self-cleavage
1,G48A G65C,0.81
2,G48A G65U,0.914
3,U46A C54A,0.933
4,U46A C54G,0.971
5,U46G G50U,0.962
6,U46G G50A,0.981
7,U46G G47A,1.02
8,U46G G47C,1.02
9,U46G G47U,0.976
10,G47C G58A,0.939
11,G47C G58U,0.997
12,G47C G58C,0.977
13,G48A A60C,0.434
14,G48A A60U,0.516
15,G47A C66G,0.953
16,G47A C66U,0.959
17,G47A A59U,0.872
18,G48C C54U,1.04
19,G47C G65C,0.726
20,G47C G65A,0.963
21,G47C G65U,0.908
22,G48C A51G,0.995
23,U46G G58U,0.955
24,U46C C57A,0.373

row,Variant,self-cleavage
1,U46G C63U,1.03
2,U46G C63A,0.869
3,U46A A60C,0.346
4,U46A A60G,0.91
5,U46G G68C,1.04
6,U46G G68U,0.971
7,G48A C57G,0.31
8,G48A C57U,0.374
9,U46G G65C,0.681
10,U46G U67G,0.995
11,U46G U67A,0.99
12,G48A U55G,0.993
13,G48A U55C,0.949
14,G47C A60U,0.562
15,G48C A59C,0.797
16,G48C A59G,0.989
17,G47C G50U,0.998
18,G47C G50C,1.02
19,U46C G58A,0.979
20,U46C A52G,1
21,U46C A52C,0.943
22,G47C U62G,0.901
23,G47C U62A,1
24,U46C U49C,0.913

row,Variant,self-cleavage
1,U46C U49A,0.996
2,U46A A59G,1.02
3,U46A A59C,0.802
4,G47A G56U,1.01
5,G47A G56A,1
6,G47A U53C,0.978
7,G47A U53A,1.02
8,G47A U53G,0.971
9,U46A G47U,0.991
10,U46A G47A,1.01
11,U46C U64G,0.852
12,U46C U64A,0.877
13,U46C U64C,0.936
14,G48A G68C,0.98
15,G47A A52G,0.969
16,G47C U67C,0.993
17,G47C U67G,1.06
18,U46A U62C,0.895
19,U46A U62G,0.925
20,G47C C57U,0.344
21,G47C C57A,0.32
22,U46A G68C,0.97
23,U46A G68A,1.02
24,U46A G65U,0.926

row,Variant,self-cleavage
1,G47A U67C,0.976
2,G47A U67G,1.06
3,G48A A52U,0.996
4,G48A A52C,0.975
5,G48A A52G,0.989
6,U46A U49A,1.02
7,G47C U55C,0.943
8,U46G A60G,0.952
9,U46G A60U,0.413
10,U46G A60C,0.413
11,G47C A52C,0.946
12,G47C A52G,1
13,G47C A52U,1.05
14,G48A U67A,1.01
15,G48A U67G,1.06
16,G48A U67C,0.958
17,G48A U64G,0.902
18,G48A U64A,0.946
19,G48A U64C,1
20,U46G C57U,0.391
21,U46G C57G,0.303
22,U46G C57A,0.354
23,G48C,0.999
